The target in one series is BmMDH2 (Bacillus methanolicus, UniProt I3E949). As to the kind of experiment: BmMDH2 activation by ACT, NADH formation monitored at 340 nm. It is filed as biochemical. The settings on record: 100 nM BmMDH2, 3 mM NAD+, pH 9.5. How it is done:
Figure 1 ACT-catalyzed conversion of NAD^+ into a compound that activates BmMDH2.A, effect of ACT concentration on BmMDH2 activation. The formation of NADH was monitored at 340 nm, with 100 nM BmMDH2 in glycine-NaOH buffer (pH 9.5) containing 0 to 125 nM ACT, 3 mM NAD^+, 20 mM ethanol, 5 mM MgCl2 and 0.5 mM MnCl2. Data for the initial 10 min are highlighted in the right panel. Data were from a single experiment. B, effects of the following treatments on BmMDH2 activation: preincubated ACT & NAD^+ (red), preincubated ACT & BmMDH2 (blue), ultrafiltrate of preincubated ACT & NAD^+ (green), and ultrafiltrate of ACT (purple) or NAD^+ (cyan) solutions. Preincubations were performed in glycine-NaOH buffer (pH 9.5) with 5 mM MgCl2 and 0.5 mM MnCl2 at 25 °C for 30 min. Ethanol, BmMDH2, or NAD^+ was subsequently added to achieve final concentrations of 10 nM ACT, 20 mM ethanol, 3 mM NAD^+, and 200 nM BmMDH2. For ultrafiltration, preincubated samples were filtered (10 kDa cutoff, Millipore), and the flowthrough was used for activation assays. Data represent means ± SD (n = 3). C, effect of NAD^+ concentration on BmMDH2 activation. Activity was measured using 100 nM BmMDH2 in glycine-NaOH buffer (pH 9.5) with 50 nM ACT, 0 to 20 mM NAD^+, 5 mM MgCl2, and 0.5 mM MnCl2. Data were from a single experiment. D, time-course of BmMDH2 activation. Reaction were performed in 200 μl glycine-NaOH buffer (100 mM, pH 9.5) with 5 mM MgCl2, 0.5 mM MnCl2, 0.25 mM NAD^+, 0.1 μM BmMDH2, 20 mM ethanol, and 50 nM ACT. Fresh NAD^+ (4 μl, 150 mM) was added twice during the reaction. Data were from a single experiment. E, catalytic rates of BmMDH2 were calculated from the slopes of the data in panel D. Additional replicates of the experiments shown in panels A, C, and D are provided in Fig. S4. […]
The catalytic processes of MDHs were monitored by measuring NADH absorbance at 340 nm using a Tecan SPARK UV-Vis plate reader (Tecan Austria GmbH) at 25 °C. […]

The next series concerns BmMDH1. The settings on record: ref [14], [15]; cited from earlier work.
The nature of series [1]: Specific activity of ACT and its mutants for the hydrolysis of ADPR. The format is biochemical. The protocol:
After a 5-minute incubation at 25°C, the reaction was terminated by the addition of 10 μL of 3 M H₂SO₄. The products were subsequently analyzed by HPLC.

Sequence of BmMDH2 (I3E949 entry or part of it): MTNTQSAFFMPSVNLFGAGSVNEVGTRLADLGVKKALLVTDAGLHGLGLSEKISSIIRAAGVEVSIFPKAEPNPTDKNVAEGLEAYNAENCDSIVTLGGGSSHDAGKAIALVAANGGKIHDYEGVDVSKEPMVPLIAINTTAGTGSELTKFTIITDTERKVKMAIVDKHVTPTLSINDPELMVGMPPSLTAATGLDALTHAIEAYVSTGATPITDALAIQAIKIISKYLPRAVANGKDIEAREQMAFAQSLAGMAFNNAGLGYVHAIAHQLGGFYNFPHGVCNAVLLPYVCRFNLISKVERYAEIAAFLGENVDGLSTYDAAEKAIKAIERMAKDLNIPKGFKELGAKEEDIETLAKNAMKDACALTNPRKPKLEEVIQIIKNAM

B1: ACT: activator protein ACT, Nudix hydrolase from B. methanolicus MGA3 with ADPRase activity (protein)
chain: MGKLFEEKTIKTEQIFSGRVVKLQVDDVELPNGQTSKREIVRHPGAVAVIAITNENKIVMVEQYRKPLEKSIVEIPAGKLEKGEDPRVTALRELEEETGYECEQMEWLISFATSPGFADEIIHLYVAKGLSKKENAAGLDEDEFVDLIELTLDEALQYIKEKRIYDSKTVIAVQYLQLQEALK
modifications: left off: His tag (from the vector pET21a(+) and the Ni-affinity column), end not stated, state not stated
Turning to B1, the “time to full activation of BmMDH2” value with BmMDH2 (31.3 nM ACT) is listed as at most 2.8 min. Further, the “ACT concentration that triggered immediate BmMDH2 activation” value with BmMDH2 is reported as over 62 nM. For the same molecule, in the series with BmMDH1, the “increase of BmMDH1 activity” value was 40 fold. The “Specific activity (ADPRase)” value in series [1] (pH 8.0, 400 μM ADPR, 5 mM MgCl2, 25 °C) was determined as 61.2 ± 0.5 U/mg. In addition, the ADPRase activity in series [1] (pH 9.5) was found to be 51.6 ± 0.4 U/mg.

These data come from article PMC12926040, “ADP-ribose is a competitive inhibitor of methanol dehydrogenases from Bacillus methanolicus” (The Journal of Biological Chemistry, 2025).
